Results reported in patent US8598320B2, “Anti-PCSK9 and methods for treating lipid and cholesterol disorders” (Merck Sharp & Dohme Corp., priority 2007, dated 2013).
Positions count from the first letter of the chain named. Where “and” joins values, the source holds several entries; their conditions need not be identical. Equal entries are not always repeated. Marks after values point to notes of the source that are not given here. Values belong to the molecule of their own block, whether it stands above or below them.

Assays:
[1] = molecular target: PCSK9/LDLR interaction (Homo sapiens, UniProt Q8NBP7); test: Alphascreen binding assay: inhibition of PCSK9/LDLR interaction (Example 3)
Description: An Amplified Luminescent Proximity Homogeneous Assay (ALPHA, Perkin-Elmer; Waltham, Mass.) capable of directly determining the interaction between PCSK9-FLAG and a putative binding partner was used to determine the effect of anti-PCSK9 antibodies on this interaction. This technique required that “donor” and “acceptor” beads be brought into proximity via protein-protein interaction, resulting in increased luminescence (Ullman et al., Proc. Nat. Acad. Sci. (1994) 91:5426-5430). In the basic assay, LDL receptor binding to PCSK9 was determined as follows: 5 μl of recombinant receptor at the appropriate concentrations was incubated with 2.5 μl PCSK9-FLAG (1.4 μg/ml, 30 min). About 2.5 μl of biotinylated anti-Flag-M2 antibody (1.8 μg/ml) was added and the mixture incubated for 1 hour. Afterward 5 μl of streptavidin donor bead and nickel chelate acceptor bead (1:1 mixture) was added and the assay incubated overnight. AlphaScreen signal (counts per second) was analyzed using an EnVision microplate reader (Perkin-Elmer). All data points were determined in triplicate. Assays were carried out at 23° C. in buffer containing 25 mM HEPES, 0.1 M NaCl, pH 7.4, 0.1% BSA. The inhibition assays were determined similarly with slight adjustments to assay volumes and protein concentrations. Briefly, 5 μl of 1.25 μg/ml of PCSK9-Flag and 1.25 μg/ml of His-tagged LDL receptor was incubated with 2.5 μl of antibody at the appropriate concentrations for 30 minutes followed by the addition of 2.5 μl of anti-Flag-BioM2 (1.8 μg/ml) and a 1 hour incubation.

[2] = molecular target: T1, PCSK9 (Homo sapiens, UniProt Q8NBP7); test: In-cell western: inhibition of PCSK9-mediated LDLR degradation in HepG2 cells; format: cell-based; parameters: The protein was added exogenously to HepG2 cells; key to Relative level of inhibition of LDLR degradation observed: Greater number of + symbols indicates a greater level of inhibition relative to other treatments.; ++: Greater number of + symbols indicates a greater level of inhibition relative to other treatments.; +++: Greater number of + symbols indicates a greater level of inhibition relative to other treatments; settings: for Relative level of inhibition of LDLR degradation observed: PCSK9 100 nM, 18 hours, LDLR normalized to β-actin
Description: The 75B9, 77D10, 11B5, 22D11, 1F11/1G11 and 29C10 antibodies were evaluated in an in-cell western assay for their ability to inhibit the degradation of the LDL receptor by PCSK9 in HepG2 cells.
In-cell western was performed to quantitate anti-PCSK9 antibody inhibition of PCSK9-mediated LDLR degradation. HepG2 cells were seeded in 384-well collagen I coated plates and treated with anti-PCSK9 antibody and/or PCSK9 (100 nM) for 18 hours. Detection of LDLR and β-actin was performed according to the manufacturer's protocol (Li-Cor Biosciences; Lincoln, Nebr.) using the antibodies described above in conjunction with IRDye 800CW goat anti-rabbit (Li-Cor) and IRDye 680 goat anti-mouse (Li-Cor). The assay was read on an Odyssey infrared imaging system (Li-Cor) and the signal for LDLR protein in each well normalized to β-actin content.

[3] = molecular target: T1, PCSK9; test: In vivo inhibition of liver LDLR degradation in mice (Western blot); parameters: host or cells: Exogenous protein injected into male C57BL/6J mice; settings: for LDLR/GAPDH / LDLR (band intensity): liver, individual mice 107-110; for LDLR (band intensity): 400 μg antibody i.p., 10 μg human PCSK9 i.v.; for Mean LDLR/GAPDH: Antibody and PCSK9 group; for % Change: mean LDLR/GAPDH vs. Saline only control
Description: (§1) The ability of an anti-PCSK9 antibody (1F11/1G11) to inhibit LDL receptor degration in mice was evaluated in these assays along with the ability of the antibodies to modulate cholesterol levels.
(§2) Time-0: Male C57BL16j mice were injected, intraperitoneal, with 400 μg of anti-human PCSK9 Antibody, 1F11/1G11. • Time-2 hours: Mice were then injected, intravenously, with 10 μg of human PCSK9 Protein. • Time-4 hours: Mice were terminated and plasma and liver samples were collected. Analysis:
Protein levels of Liver LDL Receptor were determined by Western Blot. 40 μg of each liver homogenate was separated on an Invitrogen 4-12% NuPAGE gel, transferred to PVDF membrane and incubated with goat anti-mouse LDL receptor antibody (rabbit anti-GAPDH antibody was used as a control for equal loading). Membranes were then incubated with corresponding HRP-linked antibodies and visualization was accomplished with high performance chemiluminescence film. Band intensities were quantified using ImageQuant 5.2 software.
LDL receptor levels were expressed in Arbitrary Units (AU) as a ratio of LDL receptor band intensity to GAPDH band intensity. Two separate analyses of the data are presented, […]

[4] = molecular target: T1, PCSK9; test: Plasma cholesterol in mice injected with human PCSK9; format: in vivo; parameters: host or cells: Exogenous protein injected into male C57BL/6J mice; settings: Male C57BL16j mice; 400 μg antibody i.p., 10 μg human PCSK9 i.v. at 2 hours; plasma at 4 hours
Description: as §1, §2
Plasma lipoprotein profiles of individual mice (0.1 mL plasma) were determined by fast protein liquid chromatography (FPLC) with a Pharmacia Superose 6 column. FPLC fraction cholesterol levels were determined using Wako Cholesterol Enzymatic colorimetric method.

PCSK9/LDLR interaction, sequence (Q8NBP7 153-692): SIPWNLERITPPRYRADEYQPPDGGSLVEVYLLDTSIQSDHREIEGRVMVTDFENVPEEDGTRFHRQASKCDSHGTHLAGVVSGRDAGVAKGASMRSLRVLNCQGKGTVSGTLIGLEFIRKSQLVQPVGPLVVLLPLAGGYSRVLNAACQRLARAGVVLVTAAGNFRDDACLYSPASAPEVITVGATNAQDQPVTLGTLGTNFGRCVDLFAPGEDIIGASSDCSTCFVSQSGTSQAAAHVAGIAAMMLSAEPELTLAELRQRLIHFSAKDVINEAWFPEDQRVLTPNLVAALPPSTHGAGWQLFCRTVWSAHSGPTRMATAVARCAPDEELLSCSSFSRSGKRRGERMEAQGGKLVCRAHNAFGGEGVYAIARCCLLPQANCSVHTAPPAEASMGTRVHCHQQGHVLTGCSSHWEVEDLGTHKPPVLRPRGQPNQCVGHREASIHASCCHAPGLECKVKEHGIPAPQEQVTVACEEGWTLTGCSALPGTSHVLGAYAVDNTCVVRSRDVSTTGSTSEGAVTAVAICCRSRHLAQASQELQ
PCSK9/LDLR interaction, sequence (Q8NBP7 31-152 partner limits assumed): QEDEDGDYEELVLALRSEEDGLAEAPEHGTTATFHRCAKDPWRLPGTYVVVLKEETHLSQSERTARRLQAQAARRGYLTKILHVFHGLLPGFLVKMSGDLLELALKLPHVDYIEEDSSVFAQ
T1 sequence (Q8NBP7 153-692): as the sequence (Q8NBP7 153-692) above

B1: 1F11/1G11: mouse anti-human PCSK9 antibody (IgG2a); heavy chain SEQ ID NO: 50, light chain SEQ ID NO: 54 (antibody, listed as Mus musculus, V domains shown)
VH: EVQLQQSGPELVKPGASVKISCKVSGYTFTDYYMNWVKQSHGKSLEWIGDINPNNGGAIYNQKFKGKATLTVDKSSSIAYMELRSLTSEDSAVYYCTSGIITEIAEDFWGQGTTLTVSS
VL: DIVMTQSQKFMSTSVGDRVSVTCKASQNVGTNVVWYQQKPGQSPKALIHSASYRYSGVPDRFKGSGSGTDFTLTITNVQSEDLAGFFCQQYKTYPYTFGGGTQLEIKRA
Inhibition of PCSK9/LDL receptor interaction (in words) [1]: effectively inhibit interaction between PCSK9 and the LDL receptor
% inhibition at 450 nM of antibody ([1]; 450 nM antibody, relative to the assay with no antibody added): 88* %
Inhibition of PCSK9-mediated LDL receptor degradation (in words) [2]: inhibit PCSK9-mediated LDL receptor degradation
Relative level of inhibition of LDLR degradation observed [2]: +++
LDLR/GAPDH ([3]; Table 7, lightest exposure of LDLR panel vs. GAPDH panel): 0.272 AU and 0.278 AU and 0.262 AU and 0.128 AU
LDLR (band intensity) ([3]; Table 7, lightest exposure of LDLR panel): 13714 and 13766 and 12508 and 5977
Mean LDLR/GAPDH ([3]; Table 7, lightest exposure): 0.235 AU
% Change ([3]; Table 7, lightest exposure): −48.0%
LDLR/GAPDH ([3]; Table 8, darker exposure of LDLR panel vs. lightest GAPDH panel): 0.439 AU and 0.396 AU and 0.426 AU and 0.249 AU
LDLR (band intensity) ([3]; Table 8, darker exposure of LDLR panel): 19883 and 18057 and 18642 and 10669
Mean LDLR/GAPDH ([3]; Table 8, darker exposure): 0.377 AU
% Change ([3]; Table 8, darker exposure): −35.2%
Plasma total cholesterol level [4]: 72.05 mg/dL

B3: 22D11: anti-human PCSK9 antibody (IgG1); heavy chain SEQ ID NO: 42, light chain SEQ ID NO: 46 (antibody, listed as Mus musculus, V domains shown)
VH: EVQLVDSGGGLVQPGRSLKLSCAASGFTFSNHDMAWVRQAPTKGLEWVASITPSGGTTYYRDSVEGRFTVSRDNVKSSLHLQMDSLTSEDTATYYCARQNYYDGSYYYGLYYFDYWGQGVMVTVSS
VL: DVLMTQTPVSLPVSLGGQVSISCRSSQSLVYSDGNTYLHWYLQKPGQSPQLLIYRVSNRFSGVPDRFSGSGSGTDFTLKISRVEPEDLGLYYCLQSTHFPPTFGSGTKLEIKRA
Inhibition of PCSK9/LDL receptor interaction (in words) [1]: effectively inhibit interaction between PCSK9 and the LDL receptor
Inhibition of PCSK9-mediated LDL receptor degradation (in words) [2]: inhibit PCSK9-mediated LDL receptor degradation
Relative level of inhibition of LDLR degradation observed [2]: +

B6: 11B5: mouse anti-human PCSK9 antibody (IgG2a); heavy chain SEQ ID NO: 10, light chain SEQ ID NO: 14 (antibody, listed as Mus musculus, V domains shown)
VH: EVQLQQSGAELVKPGASVTLSCTASGFNIKDTYMHWVNQRPEQGLVWIGRIDPANGHTEYDPKFQDKATITTDTSSNTAYLHLSSLTSGDTAVYYCARSYFGSIFAYWGQGTLVTVSA
VL: QIVLTQSPAIMSASPGEKVTISCSASSSVSYLYWYQQKPGSSPKPWIFRSSHRASGVPARFSGSGSGTSYSLTISSMEAEDAATYYCHQYQSYPPTFGGGTKLEIKRA
Inhibition of PCSK9/LDL receptor interaction (in words) [1]: effectively inhibit interaction between PCSK9 and the LDL receptor
Inhibition of PCSK9-mediated LDL receptor degradation (in words) [2]: inhibit PCSK9-mediated LDL receptor degradation
Relative level of inhibition of LDLR degradation observed [2]: ++

More lines, main results first:

Relative level of inhibition of LDLR degradation observed [2]: +
B2: 29C10: mouse anti-human PCSK9 antibody (IgG2a); heavy chain SEQ ID NO: 34, light chain SEQ ID NO: 38 (antibody, listed as Mus musculus, V domains shown)
VH: EVLLQQSVAELVRPGASVRLSCTASGFNIKDTYIHWVRQRPEQGLEWFGWIDPANGYTKYAPNFQGKATLTTDTSSNTAYLHLSSLTSEDSAIYYCARGYYRYYSLDYWGQGTSVTVSS
VL: DIQMTQTTSSLSASLGDRVTISCRASQDISNYLNWYQQKPDGTVKLLIYYSSRLHSGVPSRFSGRGSGTDYSLTISTLEQEDIATYFCQQGKTLPLTFGAGTKLELKRA
Inhibition of PCSK9/LDL receptor interaction (in words) [1]: effectively inhibit interaction between PCSK9 and the LDL receptor
Inhibition of PCSK9-mediated LDL receptor degradation (in words) [2]: inhibit PCSK9-mediated LDL receptor degradation

Relative level of inhibition of LDLR degradation observed [2]: ++
B4: 77D10: mouse anti-human PCSK9 antibody (IgG2b); heavy chain SEQ ID NO: 26, light chain SEQ ID NO: 30 (antibody, listed as Mus musculus, V domains shown)
VH: EVQLQQSGAELVRSGASVKLSCTTSGFNIKDYYIHWVKQRPEQGLEWIGWIDPENGDTEYAPKFQGKATMTADTSSNTAYLQLSSLTSADTAVYYCNAYYRYDDGTWFPYWGQGTLVTVSA
VL: DIQLTQSPASLSASVGETVTITCRASGNIHSYLAWYQQKQGKSPQFLVDNAKTLPDGVPSRFSVSGSGTQYSLKINSLQPEDFGTYYCQHFWNTPWTFGGGTKLEIKRA
Inhibition of PCSK9/LDL receptor interaction (in words) [1]: effectively inhibit interaction between PCSK9 and the LDL receptor
Inhibition of PCSK9-mediated LDL receptor degradation (in words) [2]: inhibit PCSK9-mediated LDL receptor degradation

Relative level of inhibition of LDLR degradation observed [2]: ++
B5: 75B9: mouse anti-human PCSK9 antibody (IgG2a); heavy chain SEQ ID NO: 18, light chain SEQ ID NO: 22 (antibody, listed as Mus musculus, V domains shown)
VH: EVQLQQSGADLVKPGASVKLSCTASGFNIKDTYIHWVKQRPEQGLEWIGRIDPANGHTEYDPKFQGRATLTTDTSSNTAYLQLFSLTSEDSAVYFCARSYYGSIFAYWGQGTLVTVSA
VL: B6 VL with Y33F, S50T, H52Y, R53L, Y70F, Q91H, S92T
Inhibition of PCSK9/LDL receptor interaction (in words) [1]: effectively inhibit interaction between PCSK9 and the LDL receptor
Inhibition of PCSK9-mediated LDL receptor degradation (in words) [2]: inhibit PCSK9-mediated LDL receptor degradation
